Laboratory results reported in patent US20250171549A1 (Amgen, published 2025).

B1: Antibody 1.1 IgG1 (LC: H45Q_S51P) (antibody, V domains shown)
VH: EVQLVESGGGLVKPGGSLRLSCAASGFTFSNARMGWVRQAPGKGLEWVGRIKSKTEGGTRDYAAPVKGRFTISRDDSKNTLYLQMNSLKTEDTAVYYCTSYSGVWGQGTMVTVSS
VL: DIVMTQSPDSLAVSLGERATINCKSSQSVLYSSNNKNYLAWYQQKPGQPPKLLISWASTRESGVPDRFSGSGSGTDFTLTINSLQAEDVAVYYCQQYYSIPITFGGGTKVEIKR
notes: Afucosylated IgG1
B2: Antibody 2.2 IgG1 (LC: F2I_P51S_H53Q_L103V_N148K, HC: K87N_S94N_V98A)(LC: Y25A, HC: A71L_D72K) (antibody, V domains shown)
VH: QVQLVESGGGVVQPGRSLRLSCAASGFTFSNYGMHWVRQAPGKGLEWVAVISYDGSNKFYLKSVKGRFTISRDNSKNTLYLQMNSLRAEDTAVYYCARAGGIGRFDYWGQGTLVTVSS
VL: DIVMTQTPLSLSVTPGQPASISCKASQSLLHSDGKTYLFWYLQKPGQSPQLLIYEVSNRFSGVPDRFSGSGSGTDFTLKISRVEAEDVGVYYCMQTLKLPLTFGGGTKVEIKR
notes: Afucosylated IgG1

Assays:
[1] = biological target: T1, cynomolgus monkey CCR8 (comprising threonine at position four) (cynomolgus monkey, UniProt O97665 1-356 (rhesus entry)); assay: flow cytometry titration on CHO cells
T1 construct: also called Cyno CCR8; cynomolgus CCR8
Protocol: (§1) Bound anti-CCR8 antibody molecules were detected with Alexa Fluor 647 conjugated Goat anti-Human IgG (H+L). Cells were subsequently stained with Zombie Violet viability dye, fixed with 4% PFA on ice, and detected by fluorescence cytometry. Equilibrium dissociation constant (Kd) values were calculated by non-linear regression with the one site specific binding evaluation tool of the GraphPad Prism software. “N.D.” means not detectable.

[2] = biological target: T2, cynomolgus monkey CCR8 (T4R; comprising arginine at position four) (cynomolgus monkey, UniProt O97665 1-356 (rhesus entry)); assay: flow cytometry titration on CHO cells; N.D. means not detectable
T2 construct: Expressed on CHO cells; also called cy CCR8 (T4R); Cynomolgus monkey Mauritian origin T4R CCR8
T2 chain: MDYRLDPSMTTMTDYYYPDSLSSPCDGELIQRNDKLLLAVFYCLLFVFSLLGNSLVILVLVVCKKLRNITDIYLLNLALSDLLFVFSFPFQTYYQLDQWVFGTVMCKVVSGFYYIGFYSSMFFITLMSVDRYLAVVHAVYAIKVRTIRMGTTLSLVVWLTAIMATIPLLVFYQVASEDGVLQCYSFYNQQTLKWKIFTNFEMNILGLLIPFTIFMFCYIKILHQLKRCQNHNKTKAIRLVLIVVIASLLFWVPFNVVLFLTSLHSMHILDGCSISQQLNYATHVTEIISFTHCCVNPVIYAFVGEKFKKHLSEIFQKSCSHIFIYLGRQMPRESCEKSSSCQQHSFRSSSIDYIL
Protocol: as §1

[3] = biological target: T3, human CCR8 (human, UniProt P51685 1-355); assay: cell-based or functional assay
T3 sequence (P51685 whole entry): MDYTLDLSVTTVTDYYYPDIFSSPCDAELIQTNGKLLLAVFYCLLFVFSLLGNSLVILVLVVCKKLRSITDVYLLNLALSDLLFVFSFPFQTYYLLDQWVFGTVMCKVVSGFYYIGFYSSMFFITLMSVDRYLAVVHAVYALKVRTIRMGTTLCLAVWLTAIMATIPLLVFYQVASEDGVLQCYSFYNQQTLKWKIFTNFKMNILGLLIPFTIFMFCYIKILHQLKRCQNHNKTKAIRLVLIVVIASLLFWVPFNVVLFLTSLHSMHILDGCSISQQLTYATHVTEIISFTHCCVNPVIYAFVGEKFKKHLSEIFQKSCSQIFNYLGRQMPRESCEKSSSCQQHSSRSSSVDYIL

[4] = biological target: T2, cynomolgus monkey CCR8 (T4R; comprising …); assay: flow cytometry titration on CHO cells
Protocol: as §1

[5] = biological target: T3, human CCR8; assay: cell-based or functional assay; remark: listed apart in the source

Binder	Kd [1] [nM]	binding result [2]	ADCC, Percent Non-Viable cells (EC50 pM), Donor 1 [3] [pM]	ADCC, Percent Non-Viable cells (EC50 pM), Donor 2 [3] [pM]	ADCC, Percent Non-Viable cells (EC50 pM), Donor 3 [3] [pM]	Kd [4] [nM]	Percent Inhibition (IC50 nM) of CCL1-dependent chemotaxis of HUT78 cells [5] [nM]
B1	0.172	no binding (tested: 0.005-100 nM)	< 0.256	8.13	2.2		
B2	0.399		< 0.256	6.04	1.8	0.989	0.076
